A short description of the data set: label from the status in PepcDB records.

On to “MMMGRIKPTDGTAGNPEFNAELVAEKIEAITSPPPAPDTSEPDAAASQPAAPQTAAPPAQTVAQPAPVTPPIVSEPPAPQQAAAAPQPAVDESALRYFASRGDKVRLQAEISRLQALYPNWVPPADPLAVPQNGDKQLEAMWQLYSDGRYAELRKAVADRQAADAGWQPPADLLDRLDVAEGRARLVNASDLKQYATVVDIAAATPSLLTCSEIDVLWRVAEAFIQTERAQRGQDAYTYILKNCTNPAERQATVEKASTLLAYQPMQALLALERPAADGSKEFDAIRDNLARRFMAEGDDEPNLAIAPDYIARLEKLAETQGLASDALLLGWYQLRRNNDADAEKWFRAARAKQDSAAASQGLALALIARKAPEEAEDVMFRWRADSDDATSTYLAATANLMALQPPADLAEDVLHRIAGEVIARKYVPTAQQFGWYARSLNQFQTAARWFETALAWKPDDEPSAYGLVITREQLSDRKGVLDLQRAWAGRSSRITNLEDTSSLMPNAVTPPPAKGTLAAQQPAQPTQHPPAEPLPAERRVILQPGSEVVVRAARPSMETVNVPRGPRQTRGCSTTIDAGQLKPADALSRGWCLMDINRPMEAISAFESALQSPSRKVREDAAYGQSLAYLRAGLSGNAAVAATKAPQNRQRAAELQVAILADRALSAFDAGRYRETLIYLDQRAQLQQERIDLMVLRGYCYLNLKMYGDATRIFEAAAATGSRDAARGLADVRNVTHPDVND”, for which the protein production result is given as “failed”.
To “MMMHPMNKTNKRDKMEKRNNPSALNIFMSFLKLGMVAFGGPTAIAYVREMVVDEKKWMDEKSFNNGVALAQIIPGASVMQVAAYVGFYLRGIVGAFAAFMAYALPAFLIMLFLTIIYMHVKSLPKTVSIFEALRIIVVSLAANGTLNFSKKNIRTIGDVFLLLISALLFILKFSPFIVIFVSIFIGFLMYRRDITKLSLKIDIPREKLRIYKYVAYLLFGVFLFNLILYMIDSKLFLLSTLMMKVDVFAFGGGYGSVPFMLHEVVDKYNLMDAKTFMDGIALGQITPGPIVITATFVGYIVGGFIGSIISTISVFTPSFIILLSSIPIFDSLKHNTIFKNILHMILVSFVGLLVAVTIRFALLVDWSIQALIIFIVSFLLLYKKYNMLLVVLLSLVLGYLIL” belongs “failed”; to “MMMYKEPFGVKVDFETGIIEGAKKSVRRLSDMEGYFVDERAWKELVEKEDPVVYEVYAVEQEEKEGDLNFSTHVIYPGKVGKEFFFAKGHFHAKLDRAQVAVALKGKGGVLMQTPEGDAKWISSEPGTVIYSPPYWAARAVNIGDEPFIMLVIYPADAGHDYGTIAEKGFSKIVIEENGEVKVVDNPRWKKGSLEHHHHHH”, “not failed”; to “MMNDRFTRIKWLVGEEKFQKISQTKVLVCGLGGVGGICVDALYRSGFKNLTLIDADKFEITNQNRQIHSENIGEEKAKVFERIYKVKGIVSKIDENFLKNFDLSEFDLIIDAIDDIPAKVALAHLIDFKKQIFISSTGGARKLDPTRIKTTSIFKTHGDALAKKFRYELRKSGFKGNFDVVFSDEEAHCKDLGSFMGVTASFGLALASLALRKVLAKKS”, “failed”.
With “MMNEPQVSFITVCYNGFKDTCELIESLQTHVHSVSYEIIVVDNASREDEATKIKELYSDIVTLRSESNLGFSGGNNLGIRVAKGAYIFLINNDTYVESDGFHYLTERLESQKNIGAVSPKIRFAFPPQNIQFAGFTSLSAITIRNEMTGFGCPDDGTFDTPHTTPYLHGAALMVKREVIEKVGEMPEIFFLYYEEMDWCTQMTNAGYELWYEPRCTVFHKESQSTGQFSKLRTFYMTRNRLLYTRRNRKGAQRLLSILYQSTIAAGKNSLQFAVKGRFDLFAAVWKGVVRSFSVTSPIRLEHHHHHH” the entry was “failed”; with “MMNTPESRLVAAGLELPEVAAALGNYEPYSIVGSQLMTSGQFPYLQGKLLYQGQLGADYTVSEGYAACRLATLNAIAQLKQACGELSRIKQIYRLEGVLNVHQSCIEHPKALDGASDLLLEIFGEAGRHSRMIWTNPVMPLNSLCLVYLFAEL”, “not failed”.
With “MMNYRKADMKDISLLVSIRKRQLIDEGIEPNIDIDKELTRYFNNKLANNLLVEWIAEENNQIIATAAIAFIDFPPTYTNKTGRKGYITNMYTEPTSRGNGIATGMLDRLVNEAKERNIHKICLVASKLGRPVYKKYGFQDTDEWLELNLLEHHHHHH” the entry was “failed”; with “MMPSVHRRSRPWDPEATPRIPEMALQPAAGARDLNPRQVESNRALSERLASVFRLWGYDEVSPPRVERLDTLMAGGAIASEDVVRLVADEPLGLRPEMTASIARAACTRLASRPRPLRLWASGTVFQSRAADEGGQCIEENLQCGVELFGVAPIEAEMELLSLLMAAVERLDFQAQHQPRLLMGHTGLMDLLLSPVPPVLRDAVRAALIQYDRLGLETIELEEGLRATLLSLLDCRGTPNEVLERLSSCFGAQALFDDLHRLCRQLQGPAAAQGVRLQLDPTFQPRFELYTGLVFQLVCDTHSAPVVVARGGRYDDLVRRCGAQPGQDFGAGFSLAIDPIRELLSDSSSNPTVAPQLMVAFSERSTLEAALERQRWWHQQGRSAVIELHPFSTRSLAEQQATDQGGFQLDWIDP”, “failed”.
As to “MMQDISIFLAFGAGFLSFISPCCLPLYPAFLSYITGMSVSELKEENAMLRKRSMIHTAFFLLGFSIIFIAIGFGTSFIGGIFTDYKDLIRQLGGIFIIVFGLIIVGVFKPKFLMQDRKFTFKNRPSGYFGSVLIGLAFAAGWTPCTGPILVSVIGLAATNPESAMIYMIAYILGFAIPFFVLSFFITKMSWIKRNSMAFMKVGGYIMIVMGVFLYFNWMTKIIVYFSSLFGGFTGF”, the protein production result is recorded as “failed”.
With “MMQPLQLSAGGFAVVLGTNEIASAVAVHLHREGCCVVMSHDPFPPVIRRKMAFHDALYGDEVTVEGVRGERVDHATQIFKALRRSDNVLVSWLALPDLLPIGAVDVLIDARMQKHRVTPDLRGLARISVGLGPGFSTAVNCDVAIETRPGRSGLIVGAGWTDAADGVASPLGGVGAERFEYSQASGRWRTAVEIGSRVFSGFTIGHLGGVPVRAPCDGILRGVVRDGQDVPQGVKLLEVDSRGRHAQWTGIDDRGRGIAKAVLRAVQPQAEIRTSYAAQPIAVFLEHHHHHH” the entry was “not failed”.
With “MMRFSNKFKKVPYLLQALLNVCLSFLALALSALLISETWYIVLFVYKSLFNKVDSYYEMLGELLIFFMYFEFIALIIKYFKSDFHFPLRYFIYIGITAVIRLIIIDHDQAISTFWWAMAILAMICGFFIANRRNSVVEH” the entry was “failed”; with “MMRKLLTALPDGGVSALSGLQDAQTVGRISVAPSGRKFLLLTIVLFLITFATHAQVVDTWRFDNPQQQEKALSIAGQLRCPQCQNQNLLESNAPVAVSMRHQVYSMVAEGKSEAEITAWMTDRYGDFVRYNPPLNEQTLLLWALPCLLLLLVGVVVWRVRKRQHAEEGEQ”, “failed”.
To “MMRLRGIPQVFRFLLLLVLAGLAGCASKAPAPEKVAPVYQPEQSKEWERQGRQAYEAGDRKMALEAWHQAVAADPANVRVRNNLALLLKEQERFEEAAEMLEAGLKVTPKVAELHYNLAVISELYLLDLDKALEHYQHYQSLVGEEGSQVAGWIADLERRLE” belongs “failed”.
Take “MMSNALRRFDPAWFEKYDGIIKHERLGTHVGKPNSSHNYAIEKCVNLMNQGQSIVHALFKQDDVMKREYHIPLNTSIDASRYLLRQGIAFHGHDESEESANKGNFLELVKYTGEQNDATEQMAVVFRFVDKSGTVKERFIEVVHVKETSSASVKSAIDDLFAKYGLSLKTVRGQGYDGASIMKVAKGVAKSFDLLSLLLKIIVVYK”: the protein production result is given as “failed”.
With “MMSSSTTTLVDAVASPQAQQAVYIGLVNPKTPTNVGGIMRASGCYGVDAVFYTGKRYEYAARGPQQYNADTQSAAERIPLTGVTSLLDAIPAGTQLVCVDLVLGATPLPEFVHPERAFYVFGPEDGTIGQEIIDRADAVVYVPTVGCMNLAASVNVLLYDRLAKTYRKQATNEAEFDGDALIRTSRDNNNRTRVKTTKRESSK” the entry was “failed”; with “MMSTHYIAGQWLAGQGETLESLDPVGQGVVWSGRGADATQVDAAVCAAREAFPAWARRPLEQRIELLERFAATLKSRADELARVIGEETGKPLWESATEVTSMVNKVAISVQAFRERTGEKSGPLADATAVLRHKPHGVVAVFGPYNFPGHLPNGHIVPALLAGNCVVFKPSELTPKVAELTLKAWIQAGLPAGVLNLVQGGRETGVALAAHRGLDGLFFTGSSRTGNLLHSQFGGQPQKILALEMGGNNPLVVEEVADLDAAVYTIIQSAFISAGQRCTCARRLLVPQGAWGDALLARLVAVSATLRVGRFDEQPAPFMGAVISLSAAEHLLKAQEHLIGKGAQPLLAMTQPIDGAALLTPGILDVSAVAERPDEEFFGPLLQVIRYSDFAAAIREANATQYGLAAGLLSDSRERFEQFLVESRAGIVNWNKQLTGAASSAPFGGIGASGNHRPSAYYAADYCAYPVASLESPSVSLPATLTPGIS”, “not failed”; with “MMSTKNGTNQARTSRDVGSELIYLTKALKAPALRDAAARLAERARDEGWSHEEYLAACLQREVAARDSHGAEGRIRAARFPSRKSLEDFDFDHQRSVKREVIAHLGTLDFVAGKENVIFLGPPGTGKTHLATGLGIRACQAGHRVAFGTAAQWVARLAEAHQAGRLSDELTRLGRIPLIVVDEVGYIPFEPEAANLFFQFISGRYERASVIVTSNKPFGRWGEVFGDDTVAAAMIDRLVHHAEVISLKGDSYRMRGRDLGRVPAANTGE”, “failed”.
To “MMTALATVLEVQEDIVVVGCQQKTSCNHCSSKDSCGTGIVSKALPGKVHHWAFHTEKKLSVGQLVEIGLPEKNLLQSAAIVYLTPLLFLLFGALLSEWFLSPMIGLGELTTIVVSVLFALGGYQLAKRLSHHIEQKTEQQVSLLRVLGEPVSDTNLGNAAR” belongs “failed”; to “MMTKKERIAIQRSMAEEALGKLKAIRQLCGAEDSSDSSDMQEVEIWTNRIKELEDWLWGESPIA”, “not failed”.
To “MMTQQELEKYLWGAATTLRGTIDAGDYKQYIFPLMFFKRICDVYDEEFENALAESDGDLEYAAFAENHHFQVPKGAHWNDVRETTTNIGLALQNAMRAIEKANPDTLEGIFGDASWTNKERLSDAMLTNLIEHYSEQTLNLKNVPDDKLGNAYEYLIKEFADDSGHTAAEFYTNRTVVKLMTMIMAPQPGESVYDPTCGSGGLLLNCALHLKDEGKEYRTLKLYGQEINLLTSAIARMNMFMHGIEEFDIVRGNTLSNPGLLENDELKKFNVILANPPYSIKSWDRKAFESDPYGRNVWGTPPQGCADYAFQQHIQKSLDLGNGRSISLWPHGILFRDAETAMRRKMIEQDQVECVIGLGPNLFYNSPMEACLLITKTNKIESKKDKILFINAVKEVRQDKNIGYLDQVHIDKIFNAYNKFENEDSFAVLVDKQEVLDKKANMAINLYIRPDSLVSSEEACFATAYQEWQQSSGDLKQSMEKLFKELV” belongs “not failed”.
For “MMVAVFWISFLLLAYIYFGYPVCIRLLASARPLPVNKSGAYQPKVSILIAAYNEAKDIEATLRNKLALDYPREQLEILVVSDESEDGTDEIVQAVAADAPFPVKLFRQVPRQGKTAGLNMLKQHAEGEILAFSDANSEWDQQALKALVSNFNDPAVGYVTGKMVYVNPEGALIGDGCSAYMKYENWLRAQETLVGSVVGVDGGIDAMRKELHSELNADQLPDFVQPLKVVEQGYRVVYEPGALLKEEALSDGGSEFSMRVRVSLRALWALKDMKQLMSPANDPVFAWQLISHKLLRYAAFAPMITLAIAALYLAPVKGLYALAAIGYGLFLYFAWAGYQKESRGQSLSTMYALPYYFVLLNLASFKAFVAFAKGEKKVVWNPRKG”, the protein production entry is listed as “failed”.
To “MNAADLTIWLVAGAGVLSFISPCSLPLYPSYLSYITGVSIQDLKENRGIMQKSAIIHTVFFMIGFSVIFYALGLSVSWIGITFSSNQKLIQQIGGIFIVLMGLFMTGLFQPKWLMAEKKVQYRSKSTGYIRSILVGMTYAAGWTPCVGPIFSAVLMLGATNPEGALLYITAYTLGFAVPFFVMAFFIGKVKWIVTYANVMMKIGGGMMIVTGILLYTNQMTKITAFFIRLFGGFTGF” belongs “failed”.
